Experimental data from patent US20140322759.
Positions count from the first letter of the chain named.

How the values were obtained:
Assay in all cases: EMSA
[1] = target: T1, phi29 DNA polymerase wild-type (Bacillus phage phi29) (UniProt P03680); details: SD 5.7; unit not printed in table (enzyme titrated 0-600 μM, 2 μM DNA as printed); Tris-acetate pH 7.9, 66 mM K-acetate, no Mg listed, 30 C
T1 sequence: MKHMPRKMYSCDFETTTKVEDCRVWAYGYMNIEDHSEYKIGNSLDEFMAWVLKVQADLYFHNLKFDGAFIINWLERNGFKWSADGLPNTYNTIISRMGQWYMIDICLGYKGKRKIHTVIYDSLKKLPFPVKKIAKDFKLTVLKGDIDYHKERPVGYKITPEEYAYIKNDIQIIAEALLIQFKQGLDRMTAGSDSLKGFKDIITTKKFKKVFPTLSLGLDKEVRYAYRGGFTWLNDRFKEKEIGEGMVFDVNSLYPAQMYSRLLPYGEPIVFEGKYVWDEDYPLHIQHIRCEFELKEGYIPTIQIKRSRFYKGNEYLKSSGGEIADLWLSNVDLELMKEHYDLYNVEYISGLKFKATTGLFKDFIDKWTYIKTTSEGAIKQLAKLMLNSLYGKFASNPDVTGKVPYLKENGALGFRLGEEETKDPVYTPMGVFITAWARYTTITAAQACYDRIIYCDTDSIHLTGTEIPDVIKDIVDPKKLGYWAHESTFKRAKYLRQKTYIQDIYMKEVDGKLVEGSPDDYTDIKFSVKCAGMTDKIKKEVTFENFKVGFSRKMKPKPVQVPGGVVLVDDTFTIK

[2] = target: T2, phi29 DNA polymerase Mut_5 M8R,V51A,M97T,G197D,E221K,Q497P,K512E,F526L (Bacillus phage phi29) (UniProt P03680); details: SD 7.4; unit not given (μM in assay); pH 7.9, 66 mM K-acetate, 30 C
T2 sequence: T1 sequence with M8R, V51A, M97T, G197D, E221K, Q497P, K512E, F526L

[3] = target: T3, phi29 DNA polymerase M8R M8R (Bacillus phage phi29) (UniProt P03680); details: SD 2.1; unit not given (μM in assay); pH 7.9, 66 mM K-acetate, 30 C
T3 sequence: T1 sequence with M8R

[4] = target: T4, phi29 DNA polymerase M97T M97T (Bacillus phage phi29) (UniProt P03680); details: SD 2.5; unit not given (μM in assay); pH 7.9, 66 mM K-acetate, 30 C
T4 sequence: T1 sequence with M97T

For “GATCACAGTGAGTAC / TCTATTGTACTCACTGTGATC [15-mer/21-mer primer/template]”, the Kd [1] was 76 µM, the Kd [2] was 23 µM and the Kd [3] was 43 µM. It also gave a Kd [4] of 37 µM.
